Laboratory results taken from the DeepSol protein solubility set.

assay: soluble on expression in E. coli; label from the status in PepcDB or PDB records

Sequence	soluble on expression in E. coli
DLHNMLLTRNQELDVAYQTIRQDLESAGDLMRQLLPVEQQIGATKLSYSYLPCSQLGGDMLGYAALDEQHVAFYVFDVSGHGISSALMSFSIQKTLSRSCGPESVTTDLVEGEYVVSEPNVVVERLNLRYQQTPDSQLYFTIVYAVLNTQTGKLRYCTAGHPKFLWRHQSEATIDMVGDENFIVGALAPMQYKGGEITLEPNDSIWCFSDGVVEARYENEFFSVNRLIANVQSVSGLPFEAQVSSVVESIKRWQVKEELDDDLTLLQLQWFGPNTSTCEGEDD	not soluble
MRNNGALGLTSKSLKNDKIMNVRTKDRGEPSTVKFSPDGRLCAMQRTPTTADVVFLEKTETSLCLELTVNTKSKEPLLAVEWVTNNQLLLVNNHSAELLYINEDKKSSKLLKATNVNAAWAIYYAPSQLLLIANGQSCSYLQPFVVTHSQFTRMKGFEVDFGGSISKENFLEKDAAIATIYGRVYVLVFKYSNRNATVLDLYELPFDAATGPSFKHSLILGFNGGCGIHVIDNLVVVHHQASQKSLIFDIRVSSPSKSHSPLVVTTIESHPQHQPPPALYTNFWFTFLPDIVIDSSGGVMYSIRLKNEHAQLEIADKQTMLEYLARRSNEKKLFVTTLLACLKARALSLRQIRKVFAMLTGVTGKSKSSFFCNGNFKLRQMANLPICRRCSISANCRFAGNFQIRQISDLAEIFIFSKFSVLPETCNSGKLIICRFAGDEEVSLPESYVANIMLQYLRSLFDAEITPEAYLIEMVVETLAEAGEMSKLQQIVTYRVINDSKPLAFLLLSYEARCSTLFQSGVDILARNKASDEIVEVMLEKKQIVDAFRFIDVRNLNDALIPKVVEAANQHCVRQTRYAIKEHLTEKKAKASLYKSIGDELYTAEEVKGASEEQATCALFEI	not soluble
MSAEVLVYRGSLVENRHRVSLALWGPEGLVAYAGDPGRVAYLRSSAKPFQALALYLTGAVERFGLTEEEVALATASHDGTPRHVEVAARFLGKLGLGPEHLVCGVHPPFSREARAALEAQGLAPTPLHHNCSGKHAGMLAAALALGAPAEGYHLPDHPVQRLNLATLEALSGARPGLATDGCSVPTFALSLARAARAFFLLADPGRAPEAYRTPLLRVREAMRRHPDLVAGPGSVDTLLMERLPVVAKRGADGYYGLALLEGPRGPLGVALKVEDGATLAREVAVVALLRALGLDPGKTPWDRPPVRNHRGLEVGHLEARLGLVWV	soluble
MSDISRGDIRVKGFTDSEMDFQLIRQLGSSSYRAASVGECLNIANTMKNEDPEEWVRQFERLAEWQKKDGLERMVKNHVISGREQLFKASNSFRAAEYYSPPSSEHHRKLGLNSADCFCTAISSMDIHFENHSIPYKNINLPCYFISPANDGEKRDTVMIVSGFDGTLEEEFLMRGLAAVERGYNVIHFAGPGQMDVFRKYPDTYFEPDFEQVVKRIINYFEFRQEINMAKLTLMGISFGGYFATRAASHEPRIKVLIANSPILDLHAYMCSFVKMDPCEMPDSEDFSINDLPSIPNEVMPPQLKAQTEHLIRRFGQPTFKATFHYLREFTVGDSLNHIKIPCLALLGSGEGGEPGKQFAEFCKITNSAQYEFSDFEGAGSHCQVGNVSYSNAVVYDWLDSL	not soluble
ADPALADVCRTKLPSQAQDTLALIAKNGPYPYNRDGVVFENRESRLPKKGNGYYHEFTVVTPGSNDRGTRRVVTGGYGEQYWSPDHYATFQEIDPRC	soluble
GPGSMKVSSFIVQLRPGFFRLMIHAKPGARSTALAAQPQALDEALEVRLAAPPVDGKANTELVEFMQTLLEQQLATLRITQKQHLRKSGCEDGEDEVYTYEHYAKKKKSKNNKRMNEDSKSGEAKVEYPDDKVRVSLVSGLTSRNKVLEVTFPGTEEDLLAVLKSADFS	soluble
MSENKNVQDTHISEQMKALHGALIRVVSALNRPRNDEKLIAEAGIQLDRALFSILISIERLGPIGVVELAERAGRDYTTVSRQVAKLEKLGLIIRQHNAIDRRIREAVISRTGKAMTERIDAAREQMGNVVFKDWPQDELDVFVRLMQKFADAMDSDASMPE	not soluble
MGSDKIHHHHHHMYANKVKKIAAVHDLSGMGRVSLTVVIPILSSMGFQVCPLPTAVLSNHTQYPGFSFLDLTDEMPKIIAEWKKLEVQFDAIYTGYLGSPRQIQIVSDFIKDFRQPDSLIVADPVLGDNGRLYTNFDMEMVKEMRHLITKADVITPNLTELFYLLDEPYKADSTDEELKEYLRLLSDKGPQVVIITSVPVHDEPHKTSVYAYNRQGNRYWKVTCPYLPAHYPGTGDTFTSVITGSLMQGDSLPMALDRATQFILQGIRATFGYEYDNREGILLEKVLHNLDMPIQMASYELI	not soluble
MLRIIVIGTTGSGKTTFARALAQRLGLPHGEQDAWNHEANWQMAPLGRFRARVDTFTSQPAWVMDGNYGKARDLGWARADTLIWLDFPAWLVYSRLVRRTLWRVLTQQELWNGNRETWRGALLDPEGPLRWFWKTHWRRRQETPALAAEFPHLRLVRLRSPGEARRFLAAVGRGHPTALEHHHHHH	not soluble
MGSDKIHHHHHHMKESLISFIKEKIEEYNYRGAVVGVSGGVDSAVVLSLCVQALGKDRVFALILPERDSSKDSLKDAVDFCERLGVEYRKRSITPILRKIGVYRLFPPRLFLPDSIVKRYVLNRWNTLSKDPFLDDLRNTGPEEFLKGLAYYRIKHRIRMCLLYFEAEKRGYAVVGTTNRTEYLTGLYVKWGDEAVDIEPIMHLYKTQVFELAKEMNVPEKILKKPPSPDLIPGITDEMAFNMSYLELDRILMKLEKNEDLSDEDPKKVERVKKILELSEKYRRDIPITFDRI	not soluble
MAHHHHHHMNIPNPRVFLDIAIGGRNAGRMIFELFMDKLPITCENFRCLCTGETGLGYYLKPRWYKNSPIHRIVTDFMFQGGDFNFGNGYGGESIYGQYFRNEKFIYKHSKRGILSMCQTRIKHTNNSQFFVTFKSCPWLDKRHVVLGHLEYGFDTLSFIEEQGTLIGKPKKQVFIYNCGVIPLDKIKYKSADNSDDDYIIPDIEKPLLEKDISINENSDFNELRNMYKYNKHF	not soluble
MSLRASVAATKQKRFVAVDIETTGLNTESDQILSIGAVKHDGIEFYRLIKQDIDVPKQIVELTGITSEMLSKEGVPLQDALEELTDFVGNVPIVGYNFRFDSVFLNRDYRKCGMQELKNEIKDLLPVVKRREKFLDNYKLQTVLSNYGIENKVPHNAVSDARATKELAMKLIKNRILVIEGHHHHHH	soluble
IKLNTLNTMSMGVTMRYMSEKYFKMMCGVQMEINYSQRGWDEKIEDDSGNSYSRTMNYLEIPFMAHLAFGKDALNRGVKVFFNAGPQIGFFLGDNEKINWTTSTTRPEHGKEVENKFDYGITAGAGLEVSTGIGHFLLEGRYYMGLSDFYKNSKRDFFERSAHSFIGIRLSYLI	not soluble
MSLRNIKWAILGPGTIARDFAKAISEVDNNIYAVASRNIERAKKFANEYKAEKFYGDYDEMLRDENIDVVYISTPHCNHYEYIIKSLENNKHVFCEKAITVNGNQLKEIVDLANKKNLIVREAMTIYHMPLYKKLRELVDEGKIGKVKMIQVSFGSLKEYDVNNRFFSKDLAGGALLDIGTYALSFTRYFLSSQPEEILTTVKKFETGVDEQSGIILKNAEDEMAVISLTMRAKQPKRGVVAGEKAYITVENFPRADKATITYPDGSVEVVEAGETDRALVYEVQDMKACILNKDTDYTLQLSLGVMNIMDEVRSQWGIRYPFEEGHHHHHH	soluble
MGKLAFLFPGQGSQAVGMGKQLAENNKEVANVFAKADEVLQDSLSEVIFEGSQEKLTLTTNAQPALLTTSFAILTALKEYDITPDFVAGHSLGEYSALVAAGALTFEDAVYAVRKRGEYMEEAVPGGEGAMAAILGADPHMLKRVTEEVTGEGYAVQIANMNSTKQIVISGTKQGVEIASQRAKENGAKRAIPLKVSGPFHSALMKPAAEKFQSVLNEITIQDTNIPVIANVTADVITSGAHIQEKLIEQLYSPVLWYPSIEYMVNQGVDTFIEIGPGKVLAGLMKSIDSSVKAYAIYDEETLKDTISNLRGEN	not soluble
MAHHHHHHMHNVYNIFRQGQKRTYMTTALDRKIREVPYLSRYVILEKLKKKPRYMSECVGTPRRAYDYNTFDKIRYKPTFNPYVHLNKDKKYRLDNWKSRDHENFDPLKCYVRGSRKSYDIPYAILPTKDELGMFHPPILSGRYKADIEKQYYMHDLPWVWHKNFYTGTSHFCDNMVIGKKKWYRKEQQNEKMKESMKKINNLVLEYREECKNKKRYNFLEKVVNTLGDEIAHKYIRKIKNIYL	not soluble
